# Measurements published in the supplement of paper PMC9112550, “Optimization of the antimicrobial peptide Bac7 by deep mutational scanning” (BMC Biology, 2022).
# System: Escherichia coli TOP10
# Assay: shrunken log2 fold change of peptide-encoding DNA abundance (4.5 h post-induction vs induction); higher = less antimicrobial activity (less host growth inhibition)
# Settings: time post-induction: 4.5 h; library: site-saturation at positions 5, 18, 19, 20
# 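Note: peptides expressed intracellularly from a pBAD plasmid library in pooled LB shake-flask culture, induced with 0.3% L-arabinose, DNA abundance read by NGS, three biological replicates, DESeq2 with apeglm shrinkage.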
row,Sequence,shrunken log2 fold change
1,RRIRDRPPRLPRPRPRPNLCPRP,0.0227
2,RRIRARPPRLPRPRPRPSVKPRP,0.133
3,RRIRGRPPRLPRPRPRPVRNPRP,0.308
4,RRIRDRPPRLPRPRPRPQDVPRP,-0.254
5,RRIRSRPPRLPRPRPRPCFAPRP,0.598
6,RRIRMRPPRLPRPRPRPSWKPRP,-0.181
7,RRIRIRPPRLPRPRPRPECWPRP,0.202
8,RRIRLRPPRLPRPRPRPFVEPRP,-0.478
9,RRIRCRPPRLPRPRPRPFCKPRP,-0.0692
10,RRIRVRPPRLPRPRPRPISTPRP,-0.112
11,RRIRERPPRLPRPRPRPSAVPRP,-0.411
12,RRIRYRPPRLPRPRPRPGRRPRP,2.15
13,RRIRVRPPRLPRPRPRPRVTPRP,0.274
14,RRIRCRPPRLPRPRPRPKRPPRP,0.158
15,RRIRQRPPRLPRPRPRPHFPPRP,-0.216
16,RRIRRRPPRLPRPRPRPHFRPRP,-0.0205
17,RRIRWRPPRLPRPRPRPLKTPRP,0.453
18,RRIRFRPPRLPRPRPRPIFCPRP,-0.155
19,RRIRHRPPRLPRPRPRPCYMPRP,-0.494
20,RRIRTRPPRLPRPRPRPMDPPRP,-0.107
21,RRIRDRPPRLPRPRPRPGMMPRP,0.0672
22,RRIRARPPRLPRPRPRPWEVPRP,0.205
23,RRIRPRPPRLPRPRPRPSDPPRP,-0.184
24,RRIRPRPPRLPRPRPRPPWKPRP,0.416
25,RRIRWRPPRLPRPRPRPSHSPRP,-0.0913

row,Sequence,shrunken log2 fold change
1,RRIRTRPPRLPRPRPRPMMEPRP,-0.202
2,RRIRCRPPRLPRPRPRPCQLPRP,-0.171
3,RRIRGRPPRLPRPRPRPWHAPRP,0.281
4,RRIRQRPPRLPRPRPRPNGIPRP,-0.0272
5,RRIRLRPPRLPRPRPRPADFPRP,-0.0534
6,RRIRTRPPRLPRPRPRPRMIPRP,0.113
7,RRIRNRPPRLPRPRPRPYYTPRP,-1.27
8,RRIRGRPPRLPRPRPRPYKDPRP,-0.322
9,RRIRIRPPRLPRPRPRPGHEPRP,0.018
10,RRIRIRPPRLPRPRPRPNMAPRP,-0.344
11,RRIRTRPPRLPRPRPRPSGWPRP,-0.00504
12,RRIRFRPPRLPRPRPRPGKVPRP,-0.216
13,RRIRIRPPRLPRPRPRPWIMPRP,-0.735
14,RRIRCRPPRLPRPRPRPWLVPRP,-0.16
15,RRIRDRPPRLPRPRPRPKTMPRP,-0.0184
16,RRIRMRPPRLPRPRPRPERAPRP,2.76
17,RRIRFRPPRLPRPRPRPYQTPRP,-0.0618
18,RRIRMRPPRLPRPRPRPYYCPRP,-0.603
19,RRIRVRPPRLPRPRPRPTWKPRP,-0.0442
20,RRIRPRPPRLPRPRPRPGVQPRP,0.336
21,RRIRSRPPRLPRPRPRPHPTPRP,0.129
22,RRIRWRPPRLPRPRPRPCYIPRP,-0.46
23,RRIRKRPPRLPRPRPRPAIWPRP,0.463
24,RRIRPRPPRLPRPRPRPWTDPRP,0.0245
25,RRIRVRPPRLPRPRPRPARMPRP,0.425

row,Sequence,shrunken log2 fold change
1,RRIRQRPPRLPRPRPRPVTYPRP,-0.219
2,RRIRNRPPRLPRPRPRPVLEPRP,0.183
3,RRIRHRPPRLPRPRPRPAPRPRP,0.749
4,RRIRQRPPRLPRPRPRPQLVPRP,0.128
5,RRIRVRPPRLPRPRPRPMRTPRP,-0.0139
6,RRIRARPPRLPRPRPRPGVVPRP,0.645
7,RRIRSRPPRLPRPRPRPKWNPRP,-0.154
8,RRIRHRPPRLPRPRPRPWAIPRP,0.112
9,RRIRLRPPRLPRPRPRPILWPRP,-0.0294
10,RRIRPRPPRLPRPRPRPKNGPRP,0.069
11,RRIRCRPPRLPRPRPRPEYRPRP,-0.00301
12,RRIRQRPPRLPRPRPRPNRNPRP,-0.658
13,RRIRNRPPRLPRPRPRPTWYPRP,0.0037
14,RRIRRRPPRLPRPRPRPGFQPRP,0.301
15,RRIRMRPPRLPRPRPRPPWVPRP,0.241
16,RRIRVRPPRLPRPRPRPRDEPRP,2.79
17,RRIRWRPPRLPRPRPRPNFQPRP,0.0517
18,RRIRHRPPRLPRPRPRPQGNPRP,-0.168
19,RRIRMRPPRLPRPRPRPKSSPRP,0.763
20,RRIRFRPPRLPRPRPRPFVVPRP,-0.219
21,RRIRWRPPRLPRPRPRPDFQPRP,0.0985
22,RRIRHRPPRLPRPRPRPPFMPRP,0.0707
23,RRIRQRPPRLPRPRPRPHHQPRP,0.18
24,RRIRERPPRLPRPRPRPEEYPRP,-0.4
25,RRIRDRPPRLPRPRPRPSLSPRP,-0.0503
